Source: paper doi:10.1101/2022.01.05.474964 (bioRxiv, 2022)

Target: the molecule itself
Assay: SEC-MALS

B1: full-length human BicD2 isoform 2 (natural protein, UniProt Q8TD16-2 1-855, looked up)
chain: MSAPSEEEEYARLVMEAQPEWLRAEVKRLSHELAETTREKIQAAEYGLAVLEEKHQLKLQFEELEVDYEAIRSEMEQLKEAFGQAHTNHKKVAADGESREESLIQESASKEQYYVRKVLELQTELKQLRNVLTNTQSENERLASVAQELKEINQNVEIQRGRLRDDIKEYKFREARLLQDYSELEEENISLQKQVSVLRQNQVEFEGLKHEIKRLEEETEYLNSQLEDAIRLKEISERQLEEALETLKTEREQKNSLRKELSHYMSINDSFYTSHLHVSLDGLKFSDDAAEPNNDAEALVNGFEHGGLAKLPLDNKTSTPKKEGLAPPSPSLVSDLLSELNISEIQKLKQQLMQMEREKAGLLATLQDTQKQLEHTRGSLSEQQEKVTRLTENLSALRRLQASKERQTALDNEKDRDSHEDGDYYEVDINGPEILACKYHVAVAEAGELREQLKALRSTHEAREAQHAEEKGRYEAEGQALTEKVSLLEKASRQDRELLARLEKELKKVSDVAGETQGSLSVAQDELVTFSEELANLYHHVCMCNNETPNRVMLDYYREGQGGAGRTSPGGRTSPEARGRRSPILLPKGLLAPEAGRADGGTGDSSPSPGSSLPSPLSDPRREPMNIYNLIAIIRDQIKHLQAAVDRTTELSRQRIASQELGPAVDKDKEALMEEILKLKSLLSTKREQITTLRTVLKANKQTAEVALANLKSKYENEKAMVTETMMKLRNELKALKEDAATFSSLRAMFATRCDEYITQLDEMQRQLAAAEDEKKTLNSLLRMAIQQKLALTQRLELLELDHEQTRRGRAKAAPKTKPATPSVSHTCACASDRAEGTGLANQVFCSEKHSIYCD
stoichiometry N: 2
